The target of the assay is T1, murine adipose triglyceride lipase, Strep fusion (Strep-mATGL) (mouse) (UniProt Q8BJ56).
T1 sequence: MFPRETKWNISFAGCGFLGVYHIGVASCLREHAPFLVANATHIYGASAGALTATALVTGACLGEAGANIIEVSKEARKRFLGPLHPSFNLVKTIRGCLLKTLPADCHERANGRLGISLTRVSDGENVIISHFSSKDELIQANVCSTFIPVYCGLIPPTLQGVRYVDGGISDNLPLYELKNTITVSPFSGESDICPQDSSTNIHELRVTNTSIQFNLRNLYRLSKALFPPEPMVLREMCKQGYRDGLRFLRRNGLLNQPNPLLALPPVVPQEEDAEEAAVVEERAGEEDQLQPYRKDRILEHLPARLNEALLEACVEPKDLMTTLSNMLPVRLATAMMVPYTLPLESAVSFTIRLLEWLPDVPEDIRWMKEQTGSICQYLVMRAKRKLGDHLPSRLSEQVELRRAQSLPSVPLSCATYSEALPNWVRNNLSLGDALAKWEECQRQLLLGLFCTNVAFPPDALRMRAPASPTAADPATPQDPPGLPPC

B1: human G0/G1 switch gene 2 protein, full length (hG0S2) (natural protein)
chain: METVQELIPLAKEMMAQKRKGKMVKLYVLGSVLALFGVVLGLMETVCSPFTAARRLRDQEAAVAELQAALERQALQKQALQEKGKQQDTVLGGRALSNRQHAS
Consider B1, for which the IC50 of inhibition of CGI-58-stimulated mATGL TG hydrolase activity, dose-response with full-length hG0S2 was found to be 19 nM.
